Consider 2 molecules from US20190361013A1 (SCUOLA NORMALE SUPERIORE, published 2019).

Assay in all cases: yeast two-hybrid (IACT), VP16 prey vs LexA bait, secondary screening
In assay [1] the target is T1, LexA-IN.
T1 construct: Non-acetylated Integrase bait; also called LexA-Integrase; IN-stop (non-acetylated)
T1 chain: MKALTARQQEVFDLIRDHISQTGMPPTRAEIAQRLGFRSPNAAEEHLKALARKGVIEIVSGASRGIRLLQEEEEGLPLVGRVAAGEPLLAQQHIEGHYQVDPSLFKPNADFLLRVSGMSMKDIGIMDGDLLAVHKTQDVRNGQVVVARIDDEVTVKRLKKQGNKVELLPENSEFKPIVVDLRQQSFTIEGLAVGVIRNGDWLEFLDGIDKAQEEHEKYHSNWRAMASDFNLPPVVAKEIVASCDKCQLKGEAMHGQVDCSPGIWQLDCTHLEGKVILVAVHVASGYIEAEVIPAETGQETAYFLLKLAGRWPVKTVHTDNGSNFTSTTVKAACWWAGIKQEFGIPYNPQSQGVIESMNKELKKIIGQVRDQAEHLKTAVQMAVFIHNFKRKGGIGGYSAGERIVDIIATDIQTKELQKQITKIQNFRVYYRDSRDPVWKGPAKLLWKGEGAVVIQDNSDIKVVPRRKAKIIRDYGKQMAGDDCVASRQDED

Assay [2] deals with T2, LexA-Integrase-p300wt-HA (Integrase constitutively acetylated in cis by the fused p300 wt HAT; positions not stated).
T2 construct: Tethered catalysis bait expressed in L40 yeast from pMICBD1; also called IN-HATwt-HA; screening bait
T2 chain: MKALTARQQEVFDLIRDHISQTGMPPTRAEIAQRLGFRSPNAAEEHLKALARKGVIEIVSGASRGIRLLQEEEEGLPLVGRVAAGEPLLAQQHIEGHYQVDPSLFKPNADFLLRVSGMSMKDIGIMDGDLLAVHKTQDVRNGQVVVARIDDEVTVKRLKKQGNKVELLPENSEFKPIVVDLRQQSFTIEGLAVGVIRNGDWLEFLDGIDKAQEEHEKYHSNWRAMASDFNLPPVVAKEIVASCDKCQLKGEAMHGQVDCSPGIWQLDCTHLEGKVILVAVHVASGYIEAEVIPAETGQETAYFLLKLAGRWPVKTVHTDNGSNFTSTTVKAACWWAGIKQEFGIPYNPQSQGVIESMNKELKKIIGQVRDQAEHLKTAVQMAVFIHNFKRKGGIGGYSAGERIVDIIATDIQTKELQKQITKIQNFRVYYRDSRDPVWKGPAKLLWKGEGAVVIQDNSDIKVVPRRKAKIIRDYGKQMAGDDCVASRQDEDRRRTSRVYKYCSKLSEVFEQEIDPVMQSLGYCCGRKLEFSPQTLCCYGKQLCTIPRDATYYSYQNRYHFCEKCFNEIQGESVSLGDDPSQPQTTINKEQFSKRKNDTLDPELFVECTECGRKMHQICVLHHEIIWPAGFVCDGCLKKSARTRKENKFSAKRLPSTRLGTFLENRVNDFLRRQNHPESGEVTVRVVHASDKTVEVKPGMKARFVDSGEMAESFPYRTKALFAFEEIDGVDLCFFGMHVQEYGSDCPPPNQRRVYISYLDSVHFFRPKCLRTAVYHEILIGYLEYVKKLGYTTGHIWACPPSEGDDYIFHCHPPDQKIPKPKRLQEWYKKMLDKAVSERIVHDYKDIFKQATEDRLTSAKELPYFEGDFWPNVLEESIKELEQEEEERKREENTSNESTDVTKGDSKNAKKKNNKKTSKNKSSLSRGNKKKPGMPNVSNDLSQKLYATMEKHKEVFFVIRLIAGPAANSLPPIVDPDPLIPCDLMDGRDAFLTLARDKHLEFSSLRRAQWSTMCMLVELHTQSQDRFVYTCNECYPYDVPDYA

The target of assay [3] is T3, LexA-HistoneH3-Gcn5mut-HA.
T3 construct: Control bait; H3 not acetylated; also called LexA-H3-Gcn5mut-HA

For assay [4], the target named is T4, LexA-Gcn5wt-HA.
T4 construct: Control bait without H3

Assay [5] has as its target T5, LexA-Gcn5mut-HA.
T5 construct: Control bait without H3

B1: VH-12A (VHH, not shown: large carriers)
VHH: QVQLQQSGAELVKPGASVKLSCTASGFNIKDTYMHWVKQRPEQGLEWIGRIDPANGNTKYDPKFQGKATITADTSSNTAYLQLSSLTSEDTAVYYCASLLWWGQGTLVTVSA
notes: Single mouse VH domain split from ScFv-12A, as yeast two-hybrid prey; also called VH-12X
For B1, the binding result in assay [1] and in assay [2] was “binds” throughout.

B2: ScFv-58F (scFv, not shown: large carriers)
scFv: DILMTQSPAIMSASPGEKVTMTCRASSSVSSSYLHWYQQKSGASPKLWIYSTSNLASGVPARFSGSGSGTSYSLTISSVEAEDAATYYCQQYSGYPWTSGGGTKLEIKRSGGSTSGSGKPGSGEGSSSTEVKVEESGGGLVQPGGSMKLSCVASGFTFSNYWMNWVRQSPEKGLEWVAEIRLKSNNYATHYAESVKGRFTISRDDSESSVYLQMNNLRAEDTGIYYCTRRNGPSSRAMDYWGQGTTVTVSS
notes: Yeast two-hybrid prey from mouse naive SPLINT ScFv library; also called ScFv-58 intrabody
Regarding B2, the binding result in assay [3], in assay [4] and in assay [5] was “no binding” throughout.
